IntAct's records for PubMed 23434407

Legend:
cab39_human CAB39 [1] = molecular target: cab39_human CAB39 (UniProt Q9Y376)
cab39_human CAB39 [2] = molecular target: cab39_human CAB39 (UniProt Q9Y376); remark: listed apart in the source
cab39_human CAB39 [3] = molecular target: cab39_human CAB39 (UniProt Q9Y376); remark: listed apart in the source
cab39_human CAB39 [4] = molecular target: cab39_human CAB39 (UniProt Q9Y376); remark: listed apart in the source

Sequence of cab39_human CAB39 (Q9Y376 whole entry): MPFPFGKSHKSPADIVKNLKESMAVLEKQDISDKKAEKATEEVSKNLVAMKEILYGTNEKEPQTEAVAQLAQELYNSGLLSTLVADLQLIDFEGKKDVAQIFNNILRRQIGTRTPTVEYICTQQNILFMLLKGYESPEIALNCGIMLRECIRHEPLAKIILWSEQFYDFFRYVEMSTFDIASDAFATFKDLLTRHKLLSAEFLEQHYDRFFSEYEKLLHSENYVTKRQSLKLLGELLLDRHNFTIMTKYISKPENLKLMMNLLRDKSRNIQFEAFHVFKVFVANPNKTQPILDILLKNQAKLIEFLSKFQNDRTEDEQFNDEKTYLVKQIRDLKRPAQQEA
Sequence of Serine/threonine-protein kinase 26 (Homo sapiens), Q9P289-1 W324E (Q9P289 whole entry W324E): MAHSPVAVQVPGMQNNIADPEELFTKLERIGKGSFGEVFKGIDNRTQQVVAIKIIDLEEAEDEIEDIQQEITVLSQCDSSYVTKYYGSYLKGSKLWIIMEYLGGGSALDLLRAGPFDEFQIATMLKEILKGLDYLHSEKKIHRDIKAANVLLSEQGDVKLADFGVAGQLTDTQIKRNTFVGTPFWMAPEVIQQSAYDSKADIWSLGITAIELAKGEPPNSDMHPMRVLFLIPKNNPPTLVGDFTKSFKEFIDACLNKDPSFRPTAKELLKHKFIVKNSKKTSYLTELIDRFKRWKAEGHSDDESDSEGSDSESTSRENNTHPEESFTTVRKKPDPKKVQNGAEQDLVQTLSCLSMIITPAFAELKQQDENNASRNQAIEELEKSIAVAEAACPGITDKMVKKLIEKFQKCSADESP
Sequence of Serine/threonine-protein kinase 26 (Homo sapiens), Q9P289-1 L90E;L95E (Q9P289 whole entry L90E/L95E): as the sequence (Q9P289 whole entry W324E) above, with L90E, L95E, E324W counted along it
Sequence of Serine/threonine-protein kinase 26 (Homo sapiens), Q9P289-1 Y134A (Q9P289 whole entry Y134A): as the sequence (Q9P289 whole entry W324E) above, with Y134A, E324W counted along it
Sequence of Serine/threonine-protein kinase 26 (Homo sapiens), Q9P289-1 L95E (Q9P289 whole entry L95E): as the sequence (Q9P289 whole entry W324E) above, with L95E, E324W counted along it
Sequence of Serine/threonine-protein kinase 26 (Homo sapiens), Q9P289-1 M225E (Q9P289 whole entry M225E): as the sequence (Q9P289 whole entry W324E) above, with M225E, E324W counted along it
Sequence of Serine/threonine-protein kinase 26 (Homo sapiens), Q9P289-1 L228E (Q9P289 whole entry L228E): as the sequence (Q9P289 whole entry W324E) above, with L228E, E324W counted along it
Sequence of Serine/threonine-protein kinase 26 (Homo sapiens), Q9P289-1 D242A;K276A (Q9P289 whole entry D242A/K276A): as the sequence (Q9P289 whole entry W324E) above, with D242A, K276A, E324W counted along it
Sequence of Serine/threonine-protein kinase 26 (Homo sapiens), Q9P289-1 D162A (Q9P289 whole entry D162A): as the sequence (Q9P289 whole entry W324E) above, with D162A, E324W counted along it
Sequence of Serine/threonine-protein kinase 26 (Homo sapiens), Q9P289-1 F229A (Q9P289 whole entry F229A): as the sequence (Q9P289 whole entry W324E) above, with F229A, E324W counted along it
Sequence of Serine/threonine-protein kinase 26 (Homo sapiens), Q9P289-1 E58A (Q9P289 whole entry E58A): as the sequence (Q9P289 whole entry W324E) above, with E58A, E324W counted along it
Sequence of Serine/threonine-protein kinase 26 (Homo sapiens), Q9P289-1 E138A (Q9P289 whole entry E138A): as the sequence (Q9P289 whole entry W324E) above, with E138A, E324W counted along it

Substance	effect of a mutation on the interaction (cab39_human CAB39 [1])	effect of a mutation on the interaction (cab39_human CAB39 [2])	effect of a mutation on the interaction (cab39_human CAB39 [3])	also measured
Serine/threonine-protein kinase 26 (Homo sapiens), Q9P289-1 D242A;K276A	decreasing interaction strength	–	–	–
Serine/threonine-protein kinase 26 (Homo sapiens), Q9P289-1 Y134A	–	decreasing interaction strength	disrupting interaction strength	–
Serine/threonine-protein kinase 26 (Homo sapiens), Q9P289-1 F229A	decreasing interaction strength	–	–	–
Serine/threonine-protein kinase 26 (Homo sapiens), Q9P289-1 L90E;L95E	–	decreasing interaction strength	disrupting interaction strength	–
Serine/threonine-protein kinase 26 (Homo sapiens), Q9P289-1 E58A	–	decreasing interaction strength	–	–
Serine/threonine-protein kinase 26 (Homo sapiens), Q9P289-1 L95E	–	decreasing interaction strength	disrupting interaction strength	–
Serine/threonine-protein kinase 26 (Homo sapiens), Q9P289-1 E138A	–	–	decreasing interaction strength	–
Serine/threonine-protein kinase 26 (Homo sapiens), Q9P289-1 W324E	–	decreasing interaction strength	disrupting interaction strength	–
Serine/threonine-protein kinase 26 (Homo sapiens), Q9P289-1 D162A	–	–	–	effect of a mutation on the interaction (cab39_human CAB39 [4]): decreasing interaction strength

More lines, main results first:

effect of a mutation on the interaction (cab39_human CAB39 [1])	effect of a mutation on the interaction (cab39_human CAB39 [2])	effect of a mutation on the interaction (cab39_human CAB39 [3])	Substance	also measured
decreasing interaction strength	–	–	Serine/threonine-protein kinase 26 (Homo sapiens), Q9P289-1 M225E	–
decreasing interaction strength	–	–	Serine/threonine-protein kinase 26 (Homo sapiens), Q9P289-1 L228E	–
